{"source": "the supplement of paper PMC10567573", "parents": {"B1": {"name": "SETD8 (parent)", "chain": "FVVEYHGDLIEITDAKKREALYAQ"}}}
{"variants_of": "B1", "test": "protein stability index of a GFP-peptide fusion (GPS, HEK-293T) (PSI 1-6); higher = more stable", "details": "c terminus: a fixed tail appended"}
{"variant": "FVVEYHGDLIEITDAKVREALYAQ", "note": "[K17V]", "protein stability index": 2.07}
{"variant": "FVVEYHGDLIEITDAKWREALYAQ", "note": "[K17W]", "protein stability index": 1.84}
{"variant": "FVVEYHGDLIEITDAKIREALYAQ", "note": "[K17I]", "protein stability index": 1.75}
{"variant": "FVVEYHGDLIEITDAKNREALYAQ", "note": "[K17N]", "protein stability index": 2.06}
{"variant": "FVVEYHGDLEEITDAKKREALYAQ", "note": "[I10E]", "protein stability index": 2.21}
{"variant": "FVVEYHGDLHEITDAKKREALYAQ", "note": "[I10H]", "protein stability index": 1.64}
{"variant": "FVVEYHGDLNEITDAKKREALYAQ", "note": "[I10N]", "protein stability index": 1.88}
{"variant": "FVVEYHGDLKEITDAKKREALYAQ", "note": "[I10K]", "protein stability index": 2.28}
{"variant": "FVVEYHGDLPEITDAKKREALYAQ", "note": "[I10P]", "protein stability index": 2.25}
{"variant": "FVVEYHGDLTEITDAKKREALYAQ", "note": "[I10T]", "protein stability index": 2.01}
{"variant": "FVVEYHGDLIEITDAKKREALYSQ", "note": "[A23S]", "protein stability index": 1.92}
{"variant": "FVVEYHGDLIEITDAKKREALYKQ", "note": "[A23K]", "protein stability index": 2.17}
{"variant": "FVVEYHGDLIEITDAKKREALYFQ", "note": "[A23F]", "protein stability index": 2.57}
{"variant": "FVVEYHGDLIEITDAKKREALYPQ", "note": "[A23P]", "protein stability index": 1.89}
{"variant": "FVVEYHGDLIEITDAKKREALYTQ", "note": "[A23T]", "protein stability index": 2.21}
{"variant": "FVVEAHGDLIEITDAKKREALYAQ", "note": "[Y5A]", "protein stability index": 1.99}
{"variant": "FVVEIHGDLIEITDAKKREALYAQ", "note": "[Y5I]", "protein stability index": 1.95}
{"variant": "FVVEYHGDLIEITDAKKREALYAF", "note": "[Q24F]", "protein stability index": 1.5}
{"variant": "FVVEYHGDLIEITDAKKREALYAI", "note": "[Q24I]", "protein stability index": 1.75}
{"variant": "FVVEYHGDLIEITDAKKREALYAA", "note": "[Q24A]", "protein stability index": 2.5}
{"variant": "FVVEYHGDLIEITDAKKREALYAL", "note": "[Q24L]", "protein stability index": 1.51}
{"variant": "FVVEYHGDLIEISDAKKREALYAQ", "note": "[T13S]", "protein stability index": 2.46}
{"variant": "FVVEYHGDLIEINDAKKREALYAQ", "note": "[T13N]", "protein stability index": 1.96}
{"variant": "FVVEYHGDLIEITDAKKREALMAQ", "note": "[Y22M]", "protein stability index": 2.95}
{"variant": "FVVEYHGDLIEITDAKKREALNAQ", "note": "[Y22N]", "protein stability index": 3.26}
{"variant": "FVVEYHGDLIEITDAKKREALFAQ", "note": "[Y22F]", "protein stability index": 1.79}
{"variant": "FVVEYHGDLIEITDAKKREALTAQ", "note": "[Y22T]", "protein stability index": 1.76}
{"variant": "FVVKYHGDLIEITDAKKREALYAQ", "note": "[E4K]", "protein stability index": 1.45}
{"variant": "FVVVYHGDLIEITDAKKREALYAQ", "note": "[E4V]", "protein stability index": 1.6}
{"variant": "FVVLYHGDLIEITDAKKREALYAQ", "note": "[E4L]", "protein stability index": 2.61}
{"variant": "FVVEYHGDLIEITDAKKREAFYAQ", "note": "[L21F]", "protein stability index": 1.73}
{"variant": "FVVEYHGDLIEITDAKKREAEYAQ", "note": "[L21E]", "protein stability index": 2.88}
{"variant": "FVVEYHGDLIEITDAKKREAYYAQ", "note": "[L21Y]", "protein stability index": 1.97}
{"variant": "FVVEYHGDLIEITDAKKREAGYAQ", "note": "[L21G]", "protein stability index": 2.05}
{"variant": "FVVEYHGDLIEITDAKKREATYAQ", "note": "[L21T]", "protein stability index": 1.94}
{"variant": "FVVEYHGDLIEITDAKKREAMYAQ", "note": "[L21M]", "protein stability index": 1.7}
{"variant": "FVVEYHGDLIEITDAKKREAVYAQ", "note": "[L21V]", "protein stability index": 1.91}
{"variant": "FVVEYHGDLITITDAKKREALYAQ", "note": "[E11T]", "protein stability index": 2.43}
{"variant": "FVVEYHGDLIMITDAKKREALYAQ", "note": "[E11M]", "protein stability index": 2.49}
{"variant": "FVVEYHGDLIKITDAKKREALYAQ", "note": "[E11K]", "protein stability index": 2.1}
{"variant": "FVVEYHGDLIHITDAKKREALYAQ", "note": "[E11H]", "protein stability index": 2.25}
{"variant": "FVVEYHGVLIEITDAKKREALYAQ", "note": "[D8V]", "protein stability index": 3.4}
{"variant": "FVVEYHGPLIEITDAKKREALYAQ", "note": "[D8P]", "protein stability index": 1.83}
{"variant": "FVVEYHGDLIEITDAQKREALYAQ", "note": "[K16Q]", "protein stability index": 2.48}
{"variant": "FVVEYHGDLIEITDAGKREALYAQ", "note": "[K16G]", "protein stability index": 1.51}
{"variant": "FVVEYHGDLIEITDADKREALYAQ", "note": "[K16D]", "protein stability index": 2.05}
{"variant": "FVVEYHGDLIEQTDAKKREALYAQ", "note": "[I12Q]", "protein stability index": 2.77}
{"variant": "FVVEYHGDLIEPTDAKKREALYAQ", "note": "[I12P]", "protein stability index": 2.36}
{"variant": "FVVEYHGDLIETTDAKKREALYAQ", "note": "[I12T]", "protein stability index": 2.02}
{"variant": "DVVEYHGDLIEITDAKKREALYAQ", "note": "[F1D]", "protein stability index": 4.46}
{"variant": "PVVEYHGDLIEITDAKKREALYAQ", "note": "[F1P]", "protein stability index": 4.46}
{"variant": "FVVEYHGDLIEITDAKKHEALYAQ", "note": "[R18H]", "protein stability index": 2.39}
{"variant": "FVVEYHGDLIEITDAKKMEALYAQ", "note": "[R18M]", "protein stability index": 2.98}
{"variant": "FVVEYHGDLIEITDAKKWEALYAQ", "note": "[R18W]", "protein stability index": 2.33}
{"variant": "FVVEYHGDLIEITDAKKGEALYAQ", "note": "[R18G]", "protein stability index": 1.24}
{"variant": "FVVEYHGDEIEITDAKKREALYAQ", "note": "[L9E]", "protein stability index": 2.42}
{"variant": "FVVEYHGDQIEITDAKKREALYAQ", "note": "[L9Q]", "protein stability index": 2.73}
{"variant": "FVVEYHGDCIEITDAKKREALYAQ", "note": "[L9C]", "protein stability index": 2.25}
{"variant": "FVVEYHGDLIEITDAKKREILYAQ", "note": "[A20I]", "protein stability index": 2.09}
{"variant": "FVVEYHGDLIEITDAKKRETLYAQ", "note": "[A20T]", "protein stability index": 2.06}
{"variant": "FVVEYHGDLIEITDAKKREVLYAQ", "note": "[A20V]", "protein stability index": 1.97}
{"variant": "FVVEYAGDLIEITDAKKREALYAQ", "note": "[H6A]", "protein stability index": 1.9}
{"variant": "FVVEYYGDLIEITDAKKREALYAQ", "note": "[H6Y]", "protein stability index": 2.16}
{"variant": "FVVEYCGDLIEITDAKKREALYAQ", "note": "[H6C]", "protein stability index": 3.73}
{"variant": "FVVEYGGDLIEITDAKKREALYAQ", "note": "[H6G]", "protein stability index": 2.15}
{"variant": "FVVEYIGDLIEITDAKKREALYAQ", "note": "[H6I]", "protein stability index": 2.19}
{"variant": "FVTEYHGDLIEITDAKKREALYAQ", "note": "[V3T]", "protein stability index": 2.23}
{"variant": "FVKEYHGDLIEITDAKKREALYAQ", "note": "[V3K]", "protein stability index": 2.36}
{"variant": "FVGEYHGDLIEITDAKKREALYAQ", "note": "[V3G]", "protein stability index": 3.07}
{"variant": "FVREYHGDLIEITDAKKREALYAQ", "note": "[V3R]", "protein stability index": 2.02}
{"variant": "FVSEYHGDLIEITDAKKREALYAQ", "note": "[V3S]", "protein stability index": 1.84}
{"variant": "FVPEYHGDLIEITDAKKREALYAQ", "note": "[V3P]", "protein stability index": 2.03}
{"variant": "FVVEYHNDLIEITDAKKREALYAQ", "note": "[G7N]", "protein stability index": 2.34}
{"variant": "FVVEYHCDLIEITDAKKREALYAQ", "note": "[G7C]", "protein stability index": 1.76}
{"variant": "FVVEYHIDLIEITDAKKREALYAQ", "note": "[G7I]", "protein stability index": 3.15}
{"variant": "FVVEYHGDLIEITDPKKREALYAQ", "note": "[A15P]", "protein stability index": 2.73}
{"variant": "FVVEYHGDLIEITDGKKREALYAQ", "note": "[A15G]", "protein stability index": 2.23}
{"variant": "FVVEYHGDLIEITDQKKREALYAQ", "note": "[A15Q]", "protein stability index": 2.22}
{"variant": "FVVEYHGDLIEITDLKKREALYAQ", "note": "[A15L]", "protein stability index": 1.93}
{"variant": "FVVEYHGDLIEITDMKKREALYAQ", "note": "[A15M]", "protein stability index": 2.69}
{"variant": "FVVEYHGDLIEITDDKKREALYAQ", "note": "[A15D]", "protein stability index": 1.82}
{"variant": "FVVEYHGDLIEITPAKKREALYAQ", "note": "[D14P]", "protein stability index": 1.37}
{"variant": "FVVEYHGDLIEITNAKKREALYAQ", "note": "[D14N]", "protein stability index": 1.65}
{"variant": "FVVEYHGDLIEITIAKKREALYAQ", "note": "[D14I]", "protein stability index": 2.69}
{"variant": "FLVEYHGDLIEITDAKKREALYAQ", "note": "[V2L]", "protein stability index": 2.13}
{"variant": "FRVEYHGDLIEITDAKKREALYAQ", "note": "[V2R]", "protein stability index": 3.02}
{"variant": "FAVEYHGDLIEITDAKKREALYAQ", "note": "[V2A]", "protein stability index": 3.83}
{"variant": "FDVEYHGDLIEITDAKKREALYAQ", "note": "[V2D]", "protein stability index": 4.2}
{"variant": "FFVEYHGDLIEITDAKKREALYAQ", "note": "[V2F]", "protein stability index": 2.19}
{"variant": "FCVEYHGDLIEITDAKKREALYAQ", "note": "[V2C]", "protein stability index": 3.25}
{"variant": "FVVEYHGDLIEITDAKKRVALYAQ", "note": "[E19V]", "protein stability index": 1.51}
{"variant": "FVVEYHGDLIEITDAKKRSALYAQ", "note": "[E19S]", "protein stability index": 1.81}
{"variant": "FVVEYHGDLIEITDAKKRDALYAQ", "note": "[E19D]", "protein stability index": 1.51}
{"variant": "FVVEYHGDLIEITDAKKRKALYAQ", "note": "[E19K]", "protein stability index": 1.47}
